Measurements from PMC8813914, “The IGFBP3/TMEM219 pathway regulates beta cell homeostasis” (Nature Communications, 2022).

Molecular target: T1, recombinant human IGFBP3 (insulin-like growth factor binding protein 3) (human, UniProt P17936 28-291)
T1 construct: as far as I recall the product is the mature protein without the signal peptide (about Gly28-Lys291); also called rh-IGFBP3; source: bought: R&D Systems, 8874-B3; expressed in S9-baculovirus, purity >95%
Experiment: SPR; Biacore 8 K
Conditions: both partners purified

T1 sequence (P17936 28-291): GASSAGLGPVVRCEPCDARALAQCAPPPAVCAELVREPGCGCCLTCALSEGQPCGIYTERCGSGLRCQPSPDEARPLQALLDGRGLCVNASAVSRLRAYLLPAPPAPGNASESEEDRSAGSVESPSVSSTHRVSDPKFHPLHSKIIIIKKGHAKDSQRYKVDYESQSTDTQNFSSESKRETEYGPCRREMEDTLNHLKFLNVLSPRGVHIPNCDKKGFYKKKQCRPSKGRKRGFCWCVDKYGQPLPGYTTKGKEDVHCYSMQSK

Kd: 1010 nM
B1: ecto-TMEM219 (recombinant protein based on the TMEM219 extracellular domain) (domain or fragment)
chain: THRTGLRSPDIPQDWVSFLRSFGQLTLCPRNGTVTGKWRGSHVVGLLTTLNFGDGPDRNKTRTFQATVLGSQMGLKGSSAGQLVLITARVTTERTAGTCLYFSAVPGILPSSQPPISCSEEGAGNATLSPRMGEECVSVWSHEGLVLTKLLTSEELALCGSR
notes: TMEM219 extracellular domain, 162 amino acids as printed, molecular weight 18 kDa; Buffer 10 mM HEPES, 0.05% SDS, pH 7.5; also called newly generated recombinant protein based on TMEM219 extracellular portion; source: E. coli (vector pET30a), by Genscript, from inclusion bodies, one-step purification through Nickel column, purity >90%
